Test results: patent publication US20260049138A1 (Chugai, published 2026)
Changes are numbered by the printed parent chain. Numbers in names are those of the source.

B1: GLS3000 H27dA one-arm antibody (antibody, human IgG1, kappa, L234A L235A, N297A, name in Kabat numbering)
heavy: QVQLVESGGGVVQPGRSLRLSCAASGFTFSNAWMHWVRQAPGKGLEWVAQIKAKSNNYATYYAESVKGRFTISRDDSKNSLYLQMNSLKTEDTAVYYCRYVHYGAYYGVDAWGQGTTVTVSSASTKGPSVFPLAPSSKSTSGGTAALGCLVKDYFPEPVTVSWNSGALTSGVHTFPAVLQSSGLYSLSSVVTVPSSSLGTQTYICNVNHKPSNTKVDKKVEPKSCDKTHTCPPCPAPEAAGGPSVFLFPPKPKDTLMISRTPEVTCVVVDVSHEDPEVKFNWYVDGVEVHNAKTKPREEQYASTYRVVSVLTVLHQDWLNGKEYKCKVSNKALPAPIEKTISKAKGQPREPQVYTLPPSRCELTKNQVSLSCAVKGFYPSDIAVEWESNGQPENNYKTTPPVLDSDGSFFLVSKLTVDKSRWQQGNVFSCSVMHEALHNHYTQKSLSLSPDYKDDDDK
chain: EPKSSDKTHTCPPCPAPELLGGPSVFLFPPKPKDTLMISRTPEVTCVVVDVSHEDPEVKFNWYVDGVEVHNAKTKPREEQYNSTYRVVSVLTVLHQDWLNGKEYKCKVSNKALPAPIEKTISKAKGQPREPQVCTLPPSRDELTKNQVSLWCLVKGFYPSDIAVEWESNGQPENNYKTTPPVLDSDGSFFLYSKLTVDKSRWQQGNVFSCSVMHEALHNRYTQKSLSLSP
light: DIVMTQSPLSLPVTPGEPASISCRSSQSLVASNRNTYLHWYQQKPGQAPRLLIYKVSNRFSGVPDRFSGSGSGTDFTLKISRVEAEDVGVYYCGQGTQVPYTFGQGTKLEIKRTVAAPSVFIFPPSDEQLKSGTASVVCLLNNFYPREAKVQWKVDNALQSGNSQESVTEQDSKDSTYSLSSTLTLSKADYEKHKVYACEVTHQGLSSPVTKSFNRGEC
B2: GLS3000 F55H one-arm antibody (antibody, human IgG1, kappa, L234A L235A, N297A, name in Kabat numbering)
heavy: B1 heavy
chain: B1 chain
light: B1 light with A31H, F60H
B3: GLS3000 F55V one-arm antibody (antibody, human IgG1, kappa, L234A L235A, N297A, name in Kabat numbering)
heavy: B1 heavy
chain: B1 chain
light: B1 light with A31H, F60V
B4: GLS3000 G89R one-arm antibody (antibody, human IgG1, kappa, L234A L235A, N297A, name in Kabat numbering)
heavy: B1 heavy
chain: B1 chain
light: B1 light with A31H, G94R
B5: GLS3000 G89E one-arm antibody (antibody, human IgG1, kappa, L234A L235A, N297A, name in Kabat numbering)
heavy: B1 heavy
chain: B1 chain
light: B1 light with A31H, G94E
B6: GLS3000 G89D one-arm antibody (antibody, human IgG1, kappa, L234A L235A, N297A, name in Kabat numbering)
heavy: B1 heavy
chain: B1 chain
light: B1 light with A31H, G94D
B7: GLS3000 F55N one-arm antibody (antibody, human IgG1, kappa, L234A L235A, N297A, name in Kabat numbering)
heavy: B1 heavy
chain: B1 chain
light: B1 light with A31H, F60N
B8: GLS3000 G89P one-arm antibody (antibody, human IgG1, kappa, L234A L235A, N297A, name in Kabat numbering)
heavy: B1 heavy
chain: B1 chain
light: B1 light with A31H, G94P
B9: GLS3000 F55P one-arm antibody (antibody, human IgG1, kappa, L234A L235A, N297A, name in Kabat numbering)
heavy: B1 heavy
chain: B1 chain
light: B1 light with A31H, F60P
B10: GLS3000 F55D one-arm antibody (antibody, human IgG1, kappa, L234A L235A, N297A, name in Kabat numbering)
heavy: B1 heavy
chain: B1 chain
light: B1 light with A31H, F60D
B11: GLS3000 F55M one-arm antibody (antibody, human IgG1, kappa, L234A L235A, N297A, name in Kabat numbering)
heavy: B1 heavy
chain: B1 chain
light: B1 light with A31H, F60M
B12: GLS3000 F55K one-arm antibody (antibody, human IgG1, kappa, L234A L235A, N297A, name in Kabat numbering)
heavy: B1 heavy
chain: B1 chain
light: B1 light with A31H, F60K
B13: GLS3000 G89T one-arm antibody (antibody, human IgG1, kappa, L234A L235A, N297A, name in Kabat numbering)
heavy: B1 heavy
chain: B1 chain
light: B1 light with A31H, G94T
B14: GLS3000 F55G one-arm antibody (antibody, human IgG1, kappa, L234A L235A, N297A, name in Kabat numbering)
heavy: B1 heavy
chain: B1 chain
light: B1 light with A31H, F60G
B15: GLS3000 F55I one-arm antibody (antibody, human IgG1, kappa, L234A L235A, N297A, name in Kabat numbering)
heavy: B1 heavy
chain: B1 chain
light: B1 light with A31H, F60I
B16: GLS3000 G89K one-arm antibody (antibody, human IgG1, kappa, L234A L235A, N297A, name in Kabat numbering)
heavy: B1 heavy
chain: B1 chain
light: B1 light with A31H, G94K
B17: GLS3000 F55S one-arm antibody (antibody, human IgG1, kappa, L234A L235A, N297A, name in Kabat numbering)
heavy: B1 heavy
chain: B1 chain
light: B1 light with A31H, F60S
B18: GLS3000 F55W one-arm antibody (antibody, human IgG1, kappa, L234A L235A, N297A, name in Kabat numbering)
heavy: B1 heavy
chain: B1 chain
light: B1 light with A31H, F60W
B19: GLS3000 F55R one-arm antibody (antibody, human IgG1, kappa, L234A L235A, N297A, name in Kabat numbering)
heavy: B1 heavy
chain: B1 chain
light: B1 light with A31H, F60R
B20: GLS3000 G89F one-arm antibody (antibody, human IgG1, kappa, L234A L235A, N297A, name in Kabat numbering)
heavy: B1 heavy
chain: B1 chain
light: B1 light with A31H, G94F
B21: GLS3000 G89Q one-arm antibody (antibody, human IgG1, kappa, L234A L235A, N297A, name in Kabat numbering)
heavy: B1 heavy
chain: B1 chain
light: B1 light with A31H, G94Q
B22: GLS3000 G89I one-arm antibody (antibody, human IgG1, kappa, L234A L235A, N297A, name in Kabat numbering)
heavy: B1 heavy
chain: B1 chain
light: B1 light with A31H, G94I
B23: GLS3000 G89H one-arm antibody (antibody, human IgG1, kappa, L234A L235A, N297A, name in Kabat numbering)
heavy: B1 heavy
chain: B1 chain
light: B1 light with A31H, G94H
B24: GLS3000 G89L one-arm antibody (antibody, human IgG1, kappa, L234A L235A, N297A, name in Kabat numbering)
heavy: B1 heavy
chain: B1 chain
light: B1 light with A31H, G94L
B25: GLS3000 F55E one-arm antibody (antibody, human IgG1, kappa, L234A L235A, N297A, name in Kabat numbering)
heavy: B1 heavy
chain: B1 chain
light: B1 light with A31H, F60E
B26: GLS3000 G89V one-arm antibody (antibody, human IgG1, kappa, L234A L235A, N297A, name in Kabat numbering)
heavy: B1 heavy
chain: B1 chain
light: B1 light with A31H, G94V
B27: GLS3000 F55Q one-arm antibody (antibody, human IgG1, kappa, L234A L235A, N297A, name in Kabat numbering)
heavy: B1 heavy
chain: B1 chain
light: B1 light with A31H, F60Q
B28: GLS3000 F55A one-arm antibody (antibody, human IgG1, kappa, L234A L235A, N297A, name in Kabat numbering)
heavy: B1 heavy
chain: B1 chain
light: B1 light with A31H, F60A
B29: GLS3000 F55L one-arm antibody (antibody, human IgG1, kappa, L234A L235A, N297A, name in Kabat numbering)
heavy: B1 heavy
chain: B1 chain
light: B1 light with A31H, F60L
B30: GLS3000 F55Y one-arm antibody (antibody, human IgG1, kappa, L234A L235A, N297A, name in Kabat numbering)
heavy: B1 heavy
chain: B1 chain
light: B1 light with A31H, F60Y
B31: GLS3000 G89N one-arm antibody (antibody, human IgG1, kappa, L234A L235A, N297A, name in Kabat numbering)
heavy: B1 heavy
chain: B1 chain
light: B1 light with A31H, G94N
B32: GLS3000 F55T one-arm antibody (antibody, human IgG1, kappa, L234A L235A, N297A, name in Kabat numbering)
heavy: B1 heavy
chain: B1 chain
light: B1 light with A31H, F60T
B33: GLS3000 G89A one-arm antibody (antibody, human IgG1, kappa, L234A L235A, N297A, name in Kabat numbering)
heavy: B1 heavy
chain: B1 chain
light: B1 light with A31H, G94A
B34: GLS3000 G89M one-arm antibody (antibody, human IgG1, kappa, L234A L235A, N297A, name in Kabat numbering)
heavy: B1 heavy
chain: B1 chain
light: B1 light with A31H, G94M

The binders below were run against T1, CD3ε homodimer protein (human, UniProt P07766 23-126, limits assumed) (assay: SPR Biacore T200, CD3ε homodimer on chip;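 note: Light-chain single-residue variant antibodies injected over amine-coupled CD3ε homodimer on a CM4 chip at 25 °C, bound amount divided by that of the GLS3000-containing antibody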).
T1 construct: also called CD3 (CD3ε)
T1 sequence (P07766 23-126 limits assumed): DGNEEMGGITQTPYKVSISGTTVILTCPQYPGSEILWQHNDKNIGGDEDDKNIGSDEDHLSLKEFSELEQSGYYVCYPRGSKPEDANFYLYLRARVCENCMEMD
Description: Each one-amino acid altered form constructed, expressed, and purified in the paragraph (6-2) was evaluated using Biacore T200 (GE Healthcare Japan Corp.). An appropriate amount of CD3ε homodimer protein was immobilized onto Sensor chip CM4 (GE Healthcare Japan Corp.) by the amine coupling method. Then, the antibody having an appropriate concentration was injected thereto as an analyte and allowed to interact with the CD3ε homodimer protein on the sensor chip. Then, the sensor chip was regenerated by the injection of 10 mmol/L glycine-HCl (pH 1.5). The assay was conducted at 25° C., and HBS-EP+ (GE Healthcare Japan Corp.) was used as a running buffer. […] Each parameter was calculated using Biacore T200 Evaluation Software (GE Healthcare Japan Corp.).
Specifically, when the amount of the GLS3000-containing antibody bound was defined as X and the amount of the L chain one-amino acid altered form bound was defined as Y, a value of Z (ratio of amounts bound)=Y/X was used.

| ratio of amount bound vs unaltered GLS3000 | Binder |
| --- | --- |
| 0.48 | B1 |
| 0.94 | B2 |
| 0.71 | B3 |
| 0.19 | B4 |
| 0.26 | B5 |
| 0.33 | B6 |
| 0.98 | B7 |
| 0.35 | B8 |
| 1.16 | B9 |
| 0.65 | B10 |
| 0.8 | B11 |
| 1.33 | B12 |
| 1.03 | B13 |
| 1.31 | B14 |
| 0.82 | B15 |
| 0.4 | B16 |
| 0.69 | B17 |

| ratio of amount bound vs unaltered GLS3000 | Binder |
| --- | --- |
| 0.69 | B18 |
| 1.31 | B19 |
| 1.09 | B20 |
| 0.38 | B21 |
| 1.07 | B22 |
| 0.7 | B23 |
| 0.94 | B24 |
| 0.72 | B25 |
| 1.63 | B26 |
| 0.91 | B27 |
| 1.13 | B28 |
| 0.76 | B29 |
| 0.92 | B30 |
| 0.8 | B31 |
| 0.41 | B32 |
| 1.13 | B33 |
| 0.52 | B34 |
